The text below walks through data of patent US20230288426A1, “REAGENT FOR MEASURING L-BIOTIN, METHOD FOR MEASURING SAMPLE CONTAINING L-BIOTIN, METHOD FOR DETERMINING NUMBER OF LABELS OF L-BIOTIN-LABELED SUBSTANCE, AND METHOD FOR PRODUCING SOLID PHASE ON WHICH OPTICALLY ISOMERIC BIOTIN-BINDING SITE IS IMMOBILIZED” (SYSMEX CORPORATION, priority 2022, published 2023).

In the assay the target is avidin (Gallus gallus, UniProt P02701). Particulars: for A500 Measurement reagent 1: room temperature 5 minutes.

Where two headings read alike, the source gives them in different places.

Chain of avidin (P02701 25-152): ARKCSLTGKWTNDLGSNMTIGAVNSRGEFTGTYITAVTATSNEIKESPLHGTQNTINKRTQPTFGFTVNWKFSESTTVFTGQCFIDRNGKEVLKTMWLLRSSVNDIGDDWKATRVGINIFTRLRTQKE
Method: HABA (1 mg) and PBS (33 mL) were mixed to obtain a HABA solution. […] In the reagent, the concentration of avidin was 250 μg/mL, and the concentration of HABA was 30 μg/mL.
A reagent for measuring L-biotin (91.7 μL) was mixed with 0.1 M phosphate buffer (pH 7.5, 18.3 μL) or an L-biotin standard solution (18.3 μL), and the mixture was allowed to stand at room temperature for 5 minutes. Then, the absorbance at 500 nm (A500) of the reaction mixture was measured by spectrophotometer UV-2600 (Shimadzu Corporation). […] As a calibration curve, a straight line by a least squares method was used.
A sample containing the L-biotin-labeled BSA prepared in the above (3.2.1) was diluted 100-fold with 0.1 M phosphate buffer (pH 7.5). A reagent for measuring L-biotin (91.7 μL) and a sample containing diluted L-biotin-labeled BSA (18.3 μL) or a sample containing an L-biotin-labeled antibody (18.3 μL) were mixed, and the mixture was allowed to stand at room temperature for 5 minutes. Then, A500 of the reaction mixture was measured by UV-2600. The amount (μM) of L-biotin contained in each sample was determined from a calibration curve (regression equation) for the reagent for measuring L-biotin.

In the case of “D-Bio-BSA: BSA labeled with D-biotin AC5-NHS”, the Biotin concentration (D-biotin in sample, Table 3) was 1375.0 µM. Besides, the D-Biotin (from calibration curve, BSA sample value multiplied by 100) was 1375.0 µM. In addition, the A500 (sample with Reagent 1 for measuring D-biotin, BSA sample diluted 100-fold) was 0.257.
`O=C(O)CCCC[C@@H]1SC[C@@H]2NC(=O)N[C@@H]21` [D-Biotin, 3aS,4S,6aR-D-biotin]: the “A500 Measurement reagent 1” value runs as follows: (D-biotin standard solution 25 μM) 0.194; (D-biotin standard solution 50 μM) 0.062.
